Experimental data taken from US20160271142A1 (CELLERANT THERAPEUTICS, published 2016).

Tests used:
[1] = target: T1, C type Lectin Like molecule 1 (CLL-1), on human cell lines (human, UniProt Q5QGZ9 1-265); assay: cell-based or functional assay
T1 sequence (looked up): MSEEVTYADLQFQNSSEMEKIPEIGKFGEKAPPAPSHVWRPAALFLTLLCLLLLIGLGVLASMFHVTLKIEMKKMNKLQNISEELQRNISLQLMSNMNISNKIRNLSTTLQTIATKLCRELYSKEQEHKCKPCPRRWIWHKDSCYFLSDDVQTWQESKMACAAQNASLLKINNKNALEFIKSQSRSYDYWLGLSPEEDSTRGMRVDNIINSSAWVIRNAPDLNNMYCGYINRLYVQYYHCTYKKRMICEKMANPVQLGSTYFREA

[2] = target: T1, C type Lectin Like molecule 1 (CLL-1), …; assay: mean fluorescent intensity of ADC binding to HEL92.1.7-CLL1 cells, relative to control C0-CLT-D202 ADC
[3] = target: T1, C type Lectin Like molecule 1 (CLL-1), …; assay: cell-based or functional assay; remark: listed apart in the source
[4] = target: T1, C type Lectin Like molecule 1 (CLL-1), …; assay: mean fluorescent intensity of ADC binding to AML2 cells, relative to control C0-CLT-D202 ADC; CLL-1 status of this line not stated
[5] = target: T1, C type Lectin Like molecule 1 (CLL-1), …; assay: mean fluorescent intensity of ADC binding to EOL-1 cells, relative to control C0-CLT-D202 ADC; CLL-1 status of this line not stated
[6] = target: T1, C type Lectin Like molecule 1 (CLL-1), …; assay: mean fluorescent intensity of ADC binding to U937 cells, relative to control C0-CLT-D202 ADC; CLL-1 status of this line not stated
[7] = target: T1, C type Lectin Like molecule 1 (CLL-1), …; assay: mean fluorescent intensity of ADC binding to HL-60 cells (express CLL-1), relative to control C0-CLT-D202 ADC
[8] = target: T1, C type Lectin Like molecule 1 (CLL-1), …; assay: mean fluorescent intensity of ADC binding to PL21 cells, relative to control C0-CLT-D202 ADC; CLL-1 status of this line not stated
[9] = target: T1, C type Lectin Like molecule 1 (CLL-1), …; assay: mean fluorescent intensity of ADC binding to 293 cells, relative to control C0-CLT-D202 ADC; CLL-1 status of this line not stated
[10] = target: T1, C type Lectin Like molecule 1 (CLL-1), …; assay: mean fluorescent intensity of ADC binding to parental HEL92.1.7 cells, relative to control C0-CLT-D202 ADC; CLL-1 status of this line not stated
[11] = target: T1, C type Lectin Like molecule 1 (CLL-1), …; assay: cell-based or functional assay; remark: listed apart in the source
[12] = target: T1, C type Lectin Like molecule 1 (CLL-1), …; assay: mean fluorescent intensity of ADC binding to HNT-34 cells, relative to control C0-CLT-D202 ADC; CLL-1 status of this line not stated
[13] = target: T1, C type Lectin Like molecule 1 (CLL-1), …; assay: mean fluorescent intensity of ADC binding to KG-1a cells, relative to control C0-CLT-D202 ADC; CLL-1 status of this line not stated
[14] = target: T1, C type Lectin Like molecule 1 (CLL-1), …; assay: mean fluorescent intensity of ADC binding to AML5 cells (express CLL-1), relative to control C0-CLT-D202 ADC
[15] = target: T1, C type Lectin Like molecule 1 (CLL-1), …; assay: mean fluorescent intensity of ADC binding to SHI-1 cells, relative to control C0-CLT-D202 ADC; CLL-1 status of this line not stated

- C6 relative MFI C6/C0 [2]: 26.1 ratio
- C6 relative MFI C6/C0 [4]: 13 ratio
- C6 relative MFI C6/C0 [5]: 20.5 ratio
- C6 relative MFI C6/C0 [6]: 14.7 ratio
- C6 relative MFI C6/C0 [7]: 20 ratio
- C6 relative MFI C6/C0 [8]: 14.7 ratio
- C6 relative MFI C6/C0 [9]: 1.2 ratio
- C6 relative MFI C6/C0 [10]: 1.3 ratio
- C6 relative MFI C6/C0 [12]: 5.8 ratio
- C6 relative MFI C6/C0 [13]: 1.3 ratio
- C6 relative MFI C6/C0 [14]: 15 ratio
- C6 relative MFI C6/C0 [15]: 1.4 ratio
B1: C6-CLT-D202 ADC (humanized anti-CLL1 antibody C6-S239C-CYSMAB, cys-substituted at position 239, conjugated to CLT-D202) (antibody, V domains shown)
VH: EVQLVQSGAEVKKPGASVKMSCKASGYTFTSYFIHWVRQAPGQGLEWIGFINPYNDGSKYAQKFQGRATLTSDKSTSTVYMELSSLRSEDTAVYYCTRDDGYYGYAMDYWGQGTLVTVSS
VL: DIQMTQSPSSLSASVGDRVTLTCRATQELSGYLSWLQQKPGKAIKRLIYAASTLDSGVPSRFSGNRAGTDYTLTISSLQPEDFATYYCLQYAIYPYTFGQGTKLEIK
modifications: CLT-D202 (maleimide linker-drug) on the engineered cysteine at position 239 (S239C) of the heavy chain constant region; drug to antibody ratio 1.7
- IC50, killing of proliferating AML-5 cells [1]: 0.03 µg/mL
- IC50, killing of quiescent AML-5 cells [1]: 0.02 µg/mL
- decrease in IC50 of cell killing, TF1-CLL1 against TF1 [1]: ~1000 fold
- target dependent cell killing, HL-60 cells, relative to control C0-CLT-D202 ADC [1]: > 500 fold
- IC50 ng/mL, cell killing, AML5 cells [3]: 13 ng/mL
- IC50 ng/mL, cell killing, HEL92.1.7-CLL1 cells [3]: 17 ng/mL
- IC50 ng/mL, cell killing, HL-60 cells [3]: 11 ng/mL
- IC50 ug/mL, cell killing, TF1-CLL1 cells [11]: 0.008 µg/mL
